# Patent US20240182536A1 (MURAL ONCOLOGY, published 2024)
# Where a chain is given by its changes, count along the chain named. In names and notes the source's numbering stands.
# B1: IL-18 variant G3P, E6K, K53T, D54Y, S55V, T63I, N91I (ligand)
# chain: YFPKLKSKLSVIRNLNDQVLFIDQGNRPLFEDMTDSDMRDNAPRTIFIISMYTYVQPRGMAVIISVKSEKISTLSSENKIISFKEMNPPDIIKDTKSDIIFFQRSVPGHDNKMQFESSSYEGYFLASEKERDLFKLILKKEDELGDRSIMFTVQNED
# B2: IL-18 variant G3P, E6R, K53T, D54Y, S55I, T63V, N91G, R104K (ligand)
# chain: B1 chain with K6R, V55I, I63V, I91G, R104K
# B3: IL-18 variant G3P, E6D, K53T, D54N, T63A, N91T, R104P (ligand)
# chain: B1 chain with K6D, Y54N, V55S, I63A, I91T, R104P
# B4: IL-18 variant G3P, E6G, D54P, S55W, N91E, R104K (ligand)
# chain: B1 chain with K6G, T53K, Y54P, V55W, I63T, I91E, R104K
# B5: IL-18 variant G3P, E6S, K53N, D54Y, S55P, T63I, N91K, R104H (ligand)
# chain: B1 chain with K6S, T53N, V55P, I91K, R104H
# B6: IL-18 variant G3L, E6Q, T63S, N91L, R104P (ligand)
# chain: B1 chain with P3L, K6Q, T53K, Y54D, V55S, I63S, I91L, R104P
# B7: IL-18 variant G3P, E6K, K53N, D54S, S55P, T63S, N91S, R104Q (ligand)
# chain: B1 chain with T53N, Y54S, V55P, I63S, I91S, R104Q
# B8: IL-18 variant E6T, D54P, S55K, R104S (ligand)
# chain: B1 chain with P3G, K6T, T53K, Y54P, V55K, I63T, I91N, R104S
# B9: IL-18 variant G3P, E6N, D54Y, T63S, N91S, R104Q (ligand)
# chain: B1 chain with K6N, T53K, V55S, I63S, I91S, R104Q
# B10: IL-18 variant G3R, E6D, D54A, S55Q, T63S, N91K, R104P (ligand)
# chain: B1 chain with P3R, K6D, T53K, Y54A, V55Q, I63S, I91K, R104P
# B11: IL-18 variant G3S, E6H, K53Y, D54P, S55Y, T63S, N91A, R104S (ligand)
# chain: B1 chain with P3S, K6H, T53Y, Y54P, V55Y, I63S, I91A, R104S
# B12: IL-18 variant G3Q, E6N, K53T, D54A, N91K, R104P (ligand)
# chain: B1 chain with P3Q, K6N, Y54A, V55S, I63T, I91K, R104P
# B13: IL-18 variant E6N, D54N, S55N, N91H, R104P (ligand)
# chain: B1 chain with P3G, K6N, T53K, Y54N, V55N, I63T, I91H, R104P
# B14: IL-18 variant G3P, E6S, K53R, D54Y, S55P, T63I, N91K (ligand)
# chain: B1 chain with K6S, T53R, V55P, I91K
# B15: IL-18 variant G3Q, E6H, S7Y, D23A, R27S, D54S, S55R, T63F, N91F, R104Q (ligand)
# chain: YFQKLHYKLSVIRNLNDQVLFIAQGNSPLFEDMTDSDMRDNAPRTIFIISMYKSRQPRGMAVFISVKSEKISTLSSENKIISFKEMNPPDFIKDTKSDIIFFQQSVPGHDNKMQFESSSYEGYFLASEKERDLFKLILKKEDELGDRSIMFTVQNED
# Biological target: T1, IL-18 binding protein (IL-18BP) (UniProt O95998 31-194)
# T1 sequence (looked up): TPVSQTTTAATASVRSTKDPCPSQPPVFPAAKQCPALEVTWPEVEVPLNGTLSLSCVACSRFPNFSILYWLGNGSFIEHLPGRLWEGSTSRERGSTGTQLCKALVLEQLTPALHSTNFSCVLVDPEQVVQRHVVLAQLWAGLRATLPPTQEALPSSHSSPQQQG
# Assay: cell-based or functional assay
Binder,"Activity, +100 nM BP, DF-1000002","Activity, +100 nM BP, DF-5000003","Activity, +100 nM BP, DF-25000004","Ratio (-BP/+BP), DF-1000005","Ratio (-BP/+BP), DF-5000006","Ratio (-BP/+BP), DF-25000007"
B1,0.32,0.11,0.08,0.81,1.01,0.93
B2,0.15,0.08,0.07,0.93,0.96,0.99
B3,0.07,0.08,0.07,0.95,0.92,1.01
B4,0.09,0.1,0.07,0.98,0.84,0.92
B5,0.07,0.07,0.07,1.03,0.94,0.95
B6,0.1,0.08,0.07,1.44,1.11,1.34
B7,0.07,0.07,0.07,0.92,1.03,0.95
B8,0.18,0.09,0.08,0.98,0.99,1.3
B9,0.25,0.1,0.08,0.86,1.02,0.89
B10,0.07,0.08,0.07,0.98,0.98,0.96
B11,0.07,0.08,0.08,1.18,1.1,0.95
B12,0.07,0.09,0.08,1.03,0.89,0.95
B13,0.08,0.08,0.09,0.99,0.93,0.78
B14,0.14,0.08,0.07,1.07,0.97,0.99
B15,0.07,0.08,0.07,1.12,1.01,1.04

# Biological target: T2, IL-18 receptors on HEK-Blue IL-18 reporter cells (UniProt Q13478 19-541; O95256 20-599, limits assumed)
# T2 sequence (looked up) 1: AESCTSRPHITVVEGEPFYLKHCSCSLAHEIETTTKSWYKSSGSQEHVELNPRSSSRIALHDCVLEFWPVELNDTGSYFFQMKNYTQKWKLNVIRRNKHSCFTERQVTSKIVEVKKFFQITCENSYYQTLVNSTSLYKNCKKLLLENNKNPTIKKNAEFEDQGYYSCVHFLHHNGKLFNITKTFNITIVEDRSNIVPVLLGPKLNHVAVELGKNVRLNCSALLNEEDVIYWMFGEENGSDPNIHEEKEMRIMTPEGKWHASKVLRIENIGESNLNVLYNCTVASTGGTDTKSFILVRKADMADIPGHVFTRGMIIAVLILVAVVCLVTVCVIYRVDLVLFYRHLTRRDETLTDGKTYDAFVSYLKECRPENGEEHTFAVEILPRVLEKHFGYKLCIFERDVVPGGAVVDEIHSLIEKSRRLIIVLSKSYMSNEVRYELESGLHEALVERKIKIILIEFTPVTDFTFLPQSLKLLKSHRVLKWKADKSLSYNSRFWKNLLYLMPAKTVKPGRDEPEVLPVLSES
# T2 sequence (looked up) 2: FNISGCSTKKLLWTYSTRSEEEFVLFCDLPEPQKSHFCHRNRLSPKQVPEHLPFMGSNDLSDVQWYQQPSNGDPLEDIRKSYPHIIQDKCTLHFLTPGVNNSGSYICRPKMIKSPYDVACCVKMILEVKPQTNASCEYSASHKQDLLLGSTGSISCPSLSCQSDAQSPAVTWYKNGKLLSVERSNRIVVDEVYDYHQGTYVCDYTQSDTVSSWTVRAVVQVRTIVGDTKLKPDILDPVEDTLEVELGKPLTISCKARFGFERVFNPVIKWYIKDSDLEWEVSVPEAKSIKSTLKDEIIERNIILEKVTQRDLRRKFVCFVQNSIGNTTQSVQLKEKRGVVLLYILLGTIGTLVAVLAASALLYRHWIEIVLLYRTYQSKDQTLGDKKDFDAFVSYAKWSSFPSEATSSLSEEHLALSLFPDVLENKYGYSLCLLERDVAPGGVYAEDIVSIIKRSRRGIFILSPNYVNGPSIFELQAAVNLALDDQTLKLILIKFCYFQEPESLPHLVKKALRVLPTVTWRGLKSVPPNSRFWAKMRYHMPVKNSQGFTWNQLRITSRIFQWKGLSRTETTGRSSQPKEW
# Assay: cell-based or functional assay
Binder,"Activity, No BP, DF-100000","Activity, No BP, DF-500000","Activity, No BP, DF-2500000"
B1,0.26,0.11,0.07
B2,0.14,0.08,0.07
B3,0.07,0.07,0.07
B4,0.09,0.08,0.07
B5,0.07,0.07,0.07
B6,0.15,0.09,0.1
B7,0.07,0.08,0.07
B8,0.17,0.09,0.1
B9,0.21,0.1,0.07
B10,0.07,0.08,0.07
B11,0.09,0.09,0.07
B12,0.07,0.08,0.07
B13,0.08,0.07,0.07
B14,0.15,0.08,0.07
B15,0.08,0.08,0.07
